Assays:
[1] = molecular target: T1, Full-length human TIGIT on CHO cells overexpressing TIGIT (human, UniProt Q495A1 22-244); experiment: cell ELISA on fixed CHO cells overexpressing human TIGIT
T1 construct: also called TIGIT-CHO cells; CHO cells overexpressing human TIGIT
T1 sequence: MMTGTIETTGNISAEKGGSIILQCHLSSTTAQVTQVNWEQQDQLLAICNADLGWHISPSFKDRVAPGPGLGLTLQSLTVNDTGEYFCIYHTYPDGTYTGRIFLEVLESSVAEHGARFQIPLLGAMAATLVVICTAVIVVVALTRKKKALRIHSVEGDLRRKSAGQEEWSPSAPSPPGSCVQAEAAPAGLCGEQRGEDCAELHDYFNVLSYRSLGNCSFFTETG

[2] = molecular target: T2, human TIGIT on SEB-activated human PBMC (human, UniProt Q495A1); experiment: flow cytometry on SEB-activated human PBMC, PE anti-human IgG, MFI
T2 construct: native, on the cell surface
T2 sequence (receptor chain, looked up): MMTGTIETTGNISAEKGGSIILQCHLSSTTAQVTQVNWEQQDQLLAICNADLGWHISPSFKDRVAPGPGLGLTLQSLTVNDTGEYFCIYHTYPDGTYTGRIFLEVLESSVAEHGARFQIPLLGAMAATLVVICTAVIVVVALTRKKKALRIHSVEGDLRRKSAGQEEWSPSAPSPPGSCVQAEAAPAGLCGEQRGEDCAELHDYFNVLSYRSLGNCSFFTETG

[3] = molecular target: T1, Full-length human TIGIT on CHO cells …; experiment: FACS blocking assay on TIGIT-CHO cells; competitor CF633-labeled CD155-Fc at 2 ug/ml
[4] = molecular target: T3, human TIGIT (Sinobiological Co., Ltd., Cat. 10917-H08-H) (human, UniProt Q495A1 22-141); experiment: SPR (Biacore T200), antibody captured via Protein A, huTIGIT in mobile phase, 1:1 Langmuir fit
T3 construct: also called huTIGIT; TIGIT-His
T3 sequence (looked up): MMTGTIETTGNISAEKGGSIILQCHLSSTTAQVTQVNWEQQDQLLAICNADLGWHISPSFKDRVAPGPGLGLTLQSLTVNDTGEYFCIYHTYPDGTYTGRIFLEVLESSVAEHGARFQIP

[5] = molecular target: T4, cynoTIGIT-mFc (fusion protein of cynoTIGIT extracellular domain and mouse IgG2a Fc fragment) (cynomolgus); experiment: SPR (Biacore T200), antibody held by Fc affinity capture, cynoTIGIT-mFc in mobile phase, 1:1 Langmuir fit
T4 construct: also called monkey TIGIT; cynomolgus TIGIT-mFc fusion protein
T4 sequence (chain, as listed by the source limits assumed): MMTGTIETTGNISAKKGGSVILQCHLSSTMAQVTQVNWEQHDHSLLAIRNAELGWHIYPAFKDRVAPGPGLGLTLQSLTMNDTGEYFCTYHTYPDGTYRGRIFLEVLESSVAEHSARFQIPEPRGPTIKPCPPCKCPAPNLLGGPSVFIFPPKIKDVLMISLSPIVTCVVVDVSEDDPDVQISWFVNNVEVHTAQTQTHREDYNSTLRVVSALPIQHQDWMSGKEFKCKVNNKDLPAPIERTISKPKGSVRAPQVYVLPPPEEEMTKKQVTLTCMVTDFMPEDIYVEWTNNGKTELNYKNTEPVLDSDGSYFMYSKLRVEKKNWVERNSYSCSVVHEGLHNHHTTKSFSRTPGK

[6] = molecular target: T5, TIGIT fusion protein with Fc or mFc tag (human, UniProt Q495A1 22-141); experiment: ELISA: human TIGIT-Fc or TIGIT-mFc captured by coated anti-Fc antibody, HRP secondary antibody, OD450
T5 construct: extracellular domain; also called TIGIT-Fc; TIGIT-mFc
T5 sequence (looked up): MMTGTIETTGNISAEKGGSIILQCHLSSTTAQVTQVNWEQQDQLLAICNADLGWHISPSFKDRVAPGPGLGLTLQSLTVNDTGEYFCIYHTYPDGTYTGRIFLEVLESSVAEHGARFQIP

[7] = molecular target: T5, TIGIT fusion protein with Fc or mFc tag; experiment: HTRF blocking assay: TIGIT-Fc or TIGIT-mFc with biotinylated CD155 as the blocked ligand, ratio 665/620
[8] = molecular target: T4, cynoTIGIT-mFc (fusion protein of …); experiment: ELISA: cynomolgus TIGIT-Fc or TIGIT-mFc captured by coated anti-Fc antibody, HRP secondary antibody, OD450
[9] = molecular target: T5, TIGIT fusion protein with Fc or mFc tag; experiment: FACS blocking assay: TIGIT-mFc pre-incubated with the antibody, added to CHO cells overexpressing CD112 (blocked ligand), PE anti-mouse IgG, MFI
[10] = molecular target: T5, TIGIT fusion protein with Fc or mFc tag; experiment: blocking cell ELISA: TIGIT-hFc or TIGIT-mFc (0.2 ug/ml) pre-mixed with the antibody, added to fixed CHO cells overexpressing CD155 (blocked ligand), OD450
[11] = molecular target: T3, human TIGIT (Sinobiological Co., Ltd., …); experiment: SPR (Biacore), captured antibody, TIGIT-His as analyte

Binder | EC50 [1] | EC50 (read off the curve) [2] | IC50 [3] | Kd [4] | koff [4] | kon [4] | Kd [5] | koff [5] | kon [5] | EC50 (read off the curve) [6] | IC50 (read off the curve) [7] | EC50 (read off the curve) [8] | IC50 (read off the curve) [9] | IC50 (read off the curve) [10] | Kd [11] | koff [11] | kon [11]
h1710-01 (antibody, human IgG4 S228P, kappa, V domains shown, also called humanized TIGIT antibody h1710-01) VH: EVQLVQSGAEVKKPGASVKVSCKASGYTFTNYYMHWVRQAPGQGLEWMGRIDPTSGATKYNDNFKGRVTMTRDTSTSTVYMELSSLRSEDTAVYYCAREGGFGYYFDYWGQGTTVTVSS VL: DIQMTQSPSSLSASVGDRVTITCRTSENIFTYLAWYQQKPGKAPKLLIYNAKTFAEGVPSRFSGSGSGTDFTLTISSLQPEDFATYYCQHHYGIPLPFGQGTKLEIKR | 76.9 pM | ~300 pM | 468 pM | 147 pM | 0.00024 s⁻¹ | 1.63e+06 M⁻¹ s⁻¹ | 322 pM | 0.000371 s⁻¹ | 1.15e+06 M⁻¹ s⁻¹ | ~100 pM | ~2000 pM | ~100 pM | ~5000 pM | ~1000 pM | – | – | –
h1711-04 (antibody, human IgG4 S228P, kappa, V domains shown, also called humanized TIGIT antibody h1711-04) VH: EVQLVQSGAEVKKPGSSVKVSCKASGYTFSNYWIGWVRQAPGQGLEWIGDIYPGGAYTNYNEKFKDRVTITADKSTSTAYMEFSSLRSEDTAVYYCTRGDYYDSSGRAMDYWGQGTLVTVSS VL: not shown | 58.7 pM | ~300 pM | 570 pM | 238 pM | 0.000436 s⁻¹ | 1.83e+06 M⁻¹ s⁻¹ | 129 pM | 0.000317 s⁻¹ | 2.46e+06 M⁻¹ s⁻¹ | ~100 pM | ~3000 pM | ~100 pM | ~5000 pM | ~1000 pM | 210 pM | 0.000442 s⁻¹ | 2.1e+06 M⁻¹ s⁻¹
h1709-10 (antibody, human IgG4 S228P, kappa, V domains shown, also called humanized TIGIT antibody h1709-10) VH: EVQLVQSGAEVKKPGASVKVSCKASGYTFTDYYMHWVRQAPGQGLEWMGLVYPYNDNTGYNRKFKGRVTMTVDTSTSTVYMELNSLRSEDTAVYYCARGGPSNWNYFDYWGQGTLVTVSS VL: DIQMTQSPSSLSASVGDRVTITCKASQNVVTAVAWYQQKPGKSPKLLIYSASNRYTGVPDRFSGSGSGTDFTLTISSLQPEDFATYFCQQYTLYPLTFGGGTKVEIKR | 56.8 pM | ~300 pM | 427 pM | 104 pM | 0.000259 s⁻¹ | 2.49e+06 M⁻¹ s⁻¹ | 300 pM | 0.000415 s⁻¹ | 1.39e+06 M⁻¹ s⁻¹ | ~100 pM | ~3000 pM | ~100 pM | ~5000 pM | ~1000 pM | – | – | –

Source: US20200255516A1 (JIANGSU HENGRUI MEDICINE, published 2020)
